Reference: publication PMC7005872

Target: TBC1D9 (UniProt Q6ZT07)
Assay: co-IP of GFP-TBK1 and FLAG-TBC1D9
Conditions: reference: GFP-TBK1 wild type; sites S172

binding against the reference: lost
Substance: TBK1 (from UniProt Q9UHD2) GFP-TBK1 S172A
